The labels stand for the following.
B1: LK-RB1-23 (antibody, human IgG4 S228P, kappa, V domains shown)
VH: QVQLQQTGAELVRPGSSVKLSCKASGYTFTNYWMDWVKQRPGQGLEWIGNIHPFGNETHYNQKFKDKATLTVDKSSSTAYMQLSSLTSEDSAVYYCARGLLLYFDVWGTGTTVTVSS
VL: DIQMTQSPASQSVSVGETVTITCRASENIYSNLAWYQQKQGKSPQLLVYGATNLADGVSLRFSGSGSGTQYSLKINSLQSEDFGSYYCQHFWGIPWTFGGGTKLEIKR
B2: LK-RB1-27 (antibody, human IgG4 S228P, kappa, V domains shown)
VH: QVQLQQSGPELVKPGASVRMSCKASGYTFTSHYIHWMKQRPGQGLEWIGWIYPGDGHTKYHEKFKDRATLTADTSSITAYMRLSSLTSEDSAIYYCVYYSDSWFPYWGQGTLVTVSA
VL: DIQMTQSPASLSVSVGETVTITCRASENIYSNLAWYQQKQGKSPHLLVYAATNLADGVPSRFSGSGSGTQYSLKINSLQSEDFGNYYCQHFWGSPWTFGGGTKLEIKR
B3: LK-RB1-28 (antibody, human IgG4 S228P, kappa, V domains shown)
VH: QVQLQQSGPELVKPGTSVKMSCKASGYTFTSHYIHWMKQRPGQGLDWIGWIYPGDGHTKYHEKFKGKATLTADTSSITAYMQLSLLTSEDSAVYYCVYYSDSWFPYWGQGTLVTVSA
VL: DIQMTQSPASLSVSVGETVTITCRASENIYSNLAWYQQKQGKSPQLLVYAATNLADGVPSRFSGSGSGTQYSLKINSLQSEDFGNYFCQHFWGSPWTFGGGTKLEIKR
B4: LK-RB1-32 (antibody, human IgG4 S228P, kappa, V domains shown)
VH: QVQLQQSGAELAKPGASVKLSCTASGYTFTTYLMHWVKQRPAQGLEWIGYINPSNDFTKYNQKFKDKATLTADTSSSTAYMQLNSLTFEDSAVYYCARNSDYDPSYWGQGTTLTVSS
VL: DIQMTQSPASLSVSVGETVTITCRASENIYSSLAWYQQKQGKSPQLLVYAATNLADGVPSRFSGSGSGTQYSLKINSLQSEDFGNYYCQHFWGTWAFGGGTKLEIKR
B5: LK-RB1-21 (antibody, human IgG4 S228P, kappa, V domains shown)
VH: QVQLQQPGAELVKPGASVKMSCKASGYIFTDYWTTWVKQRPGQGLEWIGDIYPVSGSTNYNEKFKNKATLTVDTSSSTAYMQLSSLTSEDSAVYYCARALGRRYYFDYWGQGTTLTVSS
VL: DIVMTQSHKFMSTSIGDRVSITCKASQDVSTAVAWCQQKPGQSPKSLIYSASYRYTGIPDRFTGSGSGTDFTFTISSVQAEDLAVYYCQQHYTNPVTFGTGTKLELKR
B6: LK-RB1-34 (antibody, human IgG4 S228P, kappa, V domains shown)
VH: QVQLQQSGAELVKPGASVKLSCKASGYTFTEYTIHWVKQRSGQGLEWIGWFYPGSDSIKYNEKFKDKATLTADKSSSTVYMELSRLTSEDSAVYFCSRHEGPYFTSQYYFDYWGQGTTLTVSS
VL: DILLTQSPAILSVSPGERVSFSCRASRYIGTSIHWYQQRTNGSPRLLIKYASESISGIPSRFSGSGSGTDFTLSINSVESEDIADYYCQQSNTWPLTFGAGTKLELKR
B7: LK-RB1-37 (antibody, human IgG4 S228P, kappa, V domains shown)
VH: QVQLQQPGAELVKPGASVKLSCKASGYTFTSYWMHWVKQRPGRGPEWIGRIDPNSGYARYNEKFKNKATLTADKPSSTADMHLSSLTSEDSAVYYCTRSFITTAEWFFDVWGTGTTVTVSS
VL: DILLTQSPAILSVSPGERVSFSCRASQSIGTSIHWYQQRRNGSPRLLIKYTSESISGIPSRFSGSGSGTDFTLSINSVESEDIADYYCQQSNSWPHTFGGGTKLELKR
B8: LK-RB1-35 (antibody, human IgG4 S228P, kappa, V domains shown)
VH: DVQLQESGPGLEKPSQSLSLTCSVTGYSITRGYQWNWIRQFPGNKLEWMGYISYDGSNNYNPSLKNRISITRDASKNQFFLKLNSVTTEDTATYYCARRSYNSIDYWGQGTTLTVSS
VL: DIVLTQSPATLSVTPGDSVSLSCRASQSISSNLHWYQQKSHESPRLLIKYASQSISGIPSRFSGSGSGTDFTLSINSVETEDFGMYFCQQSNSWPLTFGAGTKLELKR
B9: LK-RB1-38 (antibody, human IgG4 S228P, kappa, V domains shown)
VH: DVQLQESGPGLVQPSQSLSLTCSVTGYSITSGYQWNWIRQLPGNKLEWMAYISFDGSNNYNPSLKNRISITRDTSKNQFFLKLKSVTTEDTATYYCARRDYDGVAYWGQGTLVTVSA
VL: EIVLTQSPATLSVTPGDRVSLSCRASQNISNYLHWYQQKSHGSPRLIIKYASQSISGIPSRFSGSGSGTDFTLSINSVETEDFGMYFCQQSNSWPLTFGAGTKLELKR
B10: LK-RB1-36 (antibody, human IgG4 S228P, kappa, V domains shown)
VH: DVQLQESGPGLEKPSQSLSLTCSVTGYSITRGYQWNWIRQFPGNKLEWMGYISYDGSNNYNPSLKNRISIIRDTSKNQFFLKLNSVTTEDTATYYCARRSYNSIDYWGQGTTLTVSS
VL: DIVLTQSPATLSVTPGDSVSLSCRASQSISNNLHWYQQKSHESPRLLIKYASQSISGIPSRFSGSGSGTDFTLSINSVETEDFGMYFCQQSNSWPLTFGAGTKLELKR
B11: LK-RB1-22 (antibody, human IgG4 S228P, kappa, V domains shown)
VH: QVQLKESGPGLVAPSQSLSITCTVSGFSLTSYGVSWVRQPPGKGLEWLGIIWGDGNTNYHSALTSRLSISKDNSKSQVFLKLNSLRTDDTATYYCAKPHWDHYSMDYWGQGTSVTVSS
VL: DIQMTQTTSSLSASLGDRVTISCRASQDISNFLNWYQQKPDGTVKLLIYYTSRLHSGAPSRFSGSGSGTDYSLTISNLDQEDIATYFCQQGNTLPLTFGAGTKLELKR
B12: LK-RB1-26 (antibody, human IgG4 S228P, kappa, V domains shown)
VH: QVQLKESGPGLVAPSQSLSITCTVSGFSLTSYGVSWVRQPPGKGLEWLGIIWGDGSTNYHSALISRLSISKDNSKSQVFLKLNSLQTDDTATYYCAKPNWDYYAMDYWGQGTSVTVSS
VL: DIQMTQTTSSLSASLGDRVTISCRASQDISNFLNWYQQKPDGTFKLLISYTSTLHSGVPSRFSGSGSGTDYSLTISNLEQEDVATYFCQQGNTLPLTFGAGTKLALKR
B13: LK-RB1-30 (antibody, human IgG4 S228P, kappa, V domains shown)
VH: QVQLKESGPGLVAPSQSLSITCTVSGFSLTSYGVSWIRQPPGKGLEWLGVIWGDGNTNYHSALISRLSISKDNSKSQVFLKLNSLQTDDTATYYCAKPSWDYYAMDYWGQGTSVTVSS
VL: VIQMTQTTSSLSASLGDRVTISCRASQDISNYVNWYQQRPDGTVKLLISYTSRLHSGVPSRFSGSGSGTDYSLTITNLEQEDIATYFCQQGITLPCTFGGGTKLEINR
B14: LK-RB1-29 (antibody, human IgG4 S228P, kappa, V domains shown)
VH: QVQLKESGPGLVAPSQNLAITCTVSGFSLTNSGVSWVRQSPGKGLEWLGIIWGDGNTNYHSALISRLSISKDNSKSQVFLKLNSLQTDDTGTYYCAKPNWDYYALDYWGQGTSVTVSS
VL: DIQMTQTASSLFASLGDRVTISCRASQDISNYLNWYQQKPDGSIKLLISYTSRLHSGVPSRFSGSGSGTDYSLSISNLEQEDIATYFCQQGISLPCTFGGGTKLEVNR
B15: LK-RB1-25 (antibody, human IgG4 S228P, kappa, V domains shown)
VH: QIQLVQSGPELKKPGETVKISCKASGYTFTSYGMNWMKQAPGEGLKWMGWINTYSGVPTYADDFKGRFAFSLETSATTVYLQINNLKNEDKATYFCARRGRDSVVGHFDVWGTGTTVTVSS
VL: DIVMTQSHKFMSTSVGDRVSITCKASQDVNTAVAWYQQKPGQSPKLLIYWASTRHTGVPDRFTGSGSGTDFTLTISSVQAEDLALYYCQQHYTIPFTFGSGTKLEIKR
B16: LK-RB1-24 (antibody, human IgG4 S228P, kappa, V domains shown)
VH: QVQLQQPGAELVNPGTSVNLSCKASGYTFTGYWMHWVKQRPGQGLEWIGMIHPNNGGTIYNERFNGKATLTVDRSSTTAYIQLSSLTSEDSAVYYCAYWDLDYWGQGTTLTVSS
VL: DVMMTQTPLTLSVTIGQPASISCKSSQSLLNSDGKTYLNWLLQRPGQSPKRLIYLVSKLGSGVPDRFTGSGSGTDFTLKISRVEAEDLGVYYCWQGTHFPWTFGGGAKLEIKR

For this assay, the target named is T1, human LILRB1 (human, UniProt Q8NHL6 24-458, limits assumed).
T1 construct: also called hLILRB1
T1 sequence (Q8NHL6 24-458 limits assumed): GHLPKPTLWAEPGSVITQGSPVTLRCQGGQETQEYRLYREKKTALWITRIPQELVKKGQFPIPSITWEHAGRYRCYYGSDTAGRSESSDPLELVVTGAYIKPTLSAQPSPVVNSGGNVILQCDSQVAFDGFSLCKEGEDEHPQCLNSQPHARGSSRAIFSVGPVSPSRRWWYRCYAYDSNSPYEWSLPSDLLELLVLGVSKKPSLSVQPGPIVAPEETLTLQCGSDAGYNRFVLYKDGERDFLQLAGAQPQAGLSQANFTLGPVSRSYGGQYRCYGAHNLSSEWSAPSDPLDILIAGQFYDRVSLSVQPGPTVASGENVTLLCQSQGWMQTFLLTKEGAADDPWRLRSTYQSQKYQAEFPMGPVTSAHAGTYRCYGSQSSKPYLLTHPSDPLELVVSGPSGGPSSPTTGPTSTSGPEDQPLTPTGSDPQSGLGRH
Kind of assay: Octet off-rate ranking.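 Further: antibody dissociation rate constants against cynomolgus LILRB2 plus human LILRB1, LILRB2, LILRA1 and LILRA2, measured on an Octet instrument to rank binding.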
Text: Binding affinity of anti-LILRB1 and anti-LILRB2 antibodies against human LILRB1, LILRB2, LILRA1, LILRA2 and cynomolgus LILRB2 was ranked by measuring dissociation rate constant (Kdis) using the Octet system.
Take B1: the koff came out at 0.000477 s⁻¹.

As for B2, the koff was determined as 0.000112 s⁻¹.

B3 displayed a koff of 6.28e-05 s⁻¹.

B4: the dissociation rate constant (koff) was found to be 3.66e-05 s⁻¹.

B5 registered a koff of 4.02e-05 s⁻¹.

B6: the koff was determined as 0.000222 s⁻¹.

B7 came in with a koff of 3.91e-05 s⁻¹.

B8 had a koff of 0.00116 s⁻¹.

On to B9, for which the koff turned out to be 0.000532 s⁻¹.

B10: the koff worked out at 0.00121 s⁻¹.

B11: the koff was found to be 0.000416 s⁻¹.

Molecule B12 yielded a koff of 0.000155 s⁻¹.

For B13, the koff came out at 6.05e-05 s⁻¹.

B14 yielded a koff of 8.11e-05 s⁻¹.

Turning to B15, the koff was determined as 9.03e-05 s⁻¹.

In turn, B16 came in with a koff of 0.000987 s⁻¹.

The values above are taken from patent US20260234247A1 (published 2026).
